Experimental data published in the supplement of paper PMC9170038.

System: MS2 coat protein
Experiment: apparent KD of MS2 coat protein; designed switch direction (-1 OFF switch, 1 ON switch): -1; higher = weaker reporter binding
Summary of the method: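 Apparent KD, taken as the median over clusters for each design, was obtained by curve-fitting normalised cluster fluorescence. Designed RNA switches had been transcribed on Illumina chips by stalled E. coli RNA polymerase and titrated with SNAP-549-labelled MS2 coat protein, doubling from 0.7 or 1.5 nM to 3 µM.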

[1] = Eterna round: R95, input ligand: FMN 200 uM
[2] = Eterna round: R95, input ligand: microRNA oligo, concentration not stated
[3] = Eterna round: R95, input ligand: none
[4] = input ligand: microRNA oligo, concentration not stated

Sequence	apparent KD of MS2 coat protein (input ligand: FMN 200 uM) [nM]	apparent KD of MS2 coat protein (input ligand: none) [nM]	apparent KD of MS2 coat protein [1] [nM]	apparent KD of MS2 coat protein [2] [nM]	apparent KD of MS2 coat protein [3] [nM]	apparent KD of MS2 coat protein [4] [nM]
UCCUUAUCGGUCAGGAUAUACACCCGUUUCUCCUUGUAGAAGGGACAUGAGGAUCACCCAUGUACAGUACAUUU [alecazam66] (Eterna round: R97, puzzle: Brourd's mod of Exclusion 4)	29.6	26.8	–	–	–	–
AUGAGCAGACGGAGAUCCAACAUGAGGAUCACCCAUGUCUCAAAAGCUUUUUGCUCAUCUUAUCGUACCUUGGUGCU [Mat - Sensor v3 - turn-off var 1 - JL Mod - D13] (puzzle: Sensor v3, turn-off variant 1)	–	–	162	15.4	238	–
UUUAAUUUUUUUUUUUUACAAGCUUUUUGCUCGUCUUAUACAUGAGGAUCACCCAUGUAAAUGGGAGGUAAAUUAUC [JMF 71] (puzzle: Sensor v3, turn-off variant 2)	–	–	80.7	133	113	–
UUGAAGAUAGGAUAUACGAGGAGAGGAGAGAGAAGGUGAGGACAUGAGGAUCACCCAUGUAGAAGGAUCAGGAA [JR_Exclu2_Sub065] (puzzle: Exclusion 2)	–	–	–	75.4	–	–
AACUCUGAGGAGGAUAUACAGUGCGAAAGGACAGUAGAAGGCUUCACAUGAGGAUCACCCAUGUCGAAUAGUGA [EX6 #78] (Eterna round: R97, puzzle: Exclusion 6)	68	51.9	–	–	–	–
UCGGCGCGAGGAUAUACGUUUGCUUUUUAGGAUCGUUGCGUACAUGAGGAUCACCCAUGUAGAAGGCGCGCCGC [Apr-15 SS2-27] (puzzle: Exclusion 2)	–	–	–	12.4	–	–
AGUACUAUGCGAGCUGACUUGCGUAGUGCAGCAGGUGUUACAUGAGGAUCACCCAUGUCCUCAUUUGCUCGUCUUAA [Mat - Sensor v3 - Turn-off var 2 - D7] (puzzle: Sensor v3, turn-off variant 2)	–	–	267	91.8	293	–
UAUUUGUGAGGAUAUGAGUCGUAGAACAAUAGUACUACGUCUCAGAAGGUACAUGAGGAUCACCCAUGUUCCUC [Fiskers Ex 4 Super Stable 44 mod 31] (puzzle: Exclusion 4)	–	–	–	18.4	–	–
CUCAUGUGAGGAUAUGUGAUCAACCUUCUGUAUAGAUGAUUACAGAAGGCACAUGAGGAUCACCCAUGUAGAUC [Ex4 - 3 - 22] (puzzle: Exclusion 4)	–	–	–	91.6	–	–
GUCAGCUCGUCAGGAUAUACAUGAGGAUCACCCAUGUGAUCAAUAGCAGCUUCGGCUGCAUUAAUGUAGAAGGGACGAGCUGAC [ENG2/5-B1] (Eterna round: R96, puzzle: Exclusion NG 2)	34.7	368	–	–	–	33
CAGUACUGAGGAUAUACAUGAGGAUCACCCAUGUGUUCCAGCUAGGAAACUAGCAUAAGUAGAAGGCAGUACUG [salish99_ex3_r3_091x] (Eterna round: R96, puzzle: Exclusion 3)	461	23.6	–	–	–	18.4
GUGUAGAUAGGAUAUGCGUGAGUCUAGCGAAGCUAGAUUCUACAUGAGGAUCACCCAUGUAGAAGGGUCUACAC [Fiskers Ex 2 - 26] (puzzle: Exclusion 2)	–	–	–	15.9	–	–
GUGUAGGUAGGAUAUACAUGAGGAUCACCCAUGUGAAUAAGAUAGAAUAAGAUAAAGUGUAGAAGGGCUAGUGU [Excluse me!!! 13 - Jieux - Exclusion 3] (puzzle: Exclusion 3)	–	–	–	34.5	–	–
AAAAUGUAAGGAUAUAGCCGGAACCCAGGGUCAAUACCCGGCUAGAAGGUACAUGAGGAUCACCCAUGUAAGAA [Excls4-VI] (puzzle: Exclusion 4)	–	–	21.6	18.9	16.5	–
GCUAAGAGUGUGAGGAUAUGCUGGUCCUUGGAUCAGCAGAAGGCACAUGAGGAUCACCCAUGUGAAAACUUAGC [Mat - Exclusion 4 - JL Mod - D64] (puzzle: Brourd's mod of Exclusion 4)	–	–	–	19.9	–	–
UGCAGACGAGGAUAUAGAUUUAAGUACAUGAGGAUCACCCAUGUACAUAUGUAUUUAGAUUUAGAAGGCGUCUGCU [E5/16-A4] (Eterna round: R97, puzzle: Exclusion 5)	28.5	29.8	–	–	–	–
ACAUGAGGAUCACCCAUGUCCGGCUGGUCCGUCUCGGCUGUCGAGGAUAUAGCUCGGUGUCCGCGCUAGAAGGCGGGAGCCGGC [Aenatbe mod 83] (Eterna round: R96, puzzle: Exclusion NG 3)	91.5	73.4	–	–	–	64.7
GGUUUUUUUUUCCUUUCUUACAUGAGGAUCACCCAUGUUUCUUGUCGUGCUCGCGUUGCUCGUCUGUCUGUCUGUUG [salish99_TOv1_r3_075(!)] (puzzle: Sensor v3, turn-off variant 1)	–	–	49.7	41	56.2	–

Sequence	apparent KD of MS2 coat protein (input ligand: FMN 200 uM) [nM]	apparent KD of MS2 coat protein (input ligand: none) [nM]	apparent KD of MS2 coat protein [1] [nM]	apparent KD of MS2 coat protein [2] [nM]	apparent KD of MS2 coat protein [3] [nM]	apparent KD of MS2 coat protein [4] [nM]
CGAUCACAUGAGGAUCACCCAUGUCAGGAUAUCGUCCAUAGGAAACAACCCUUCGAGGCGAGAAGGGACAAUCG [Eternabot (Original) Solution 29] (Eterna round: R97, puzzle: Exclusion 1)	46.9	31.1	–	–	–	–
GCGUACUGAGGAUAUACAUGAGGAUCACCCAUGUAACACAGCAUAUGUGAAGUUUUUUGUAGAAGGCAGUAUGC [JR_Ex3_Sub056] (Eterna round: R97, puzzle: Exclusion 3)	180	28.7	–	–	–	–
AUGAGGAUAAGAAAGUGAAGAUAGAGCGUACCUUAUGGAACAUGAGGAUCACCCAUGUAGCUUUUUGCUCGUCUUAU [JR_SV3TOV2_Sub031] (puzzle: Sensor v3, turn-off variant 2)	–	–	19.9	49.5	14.7	–
UAGCAUUGCCUUUGGUAGUGCUUUACAUGAGGAUCACCCAUGUAGGAUAUGGUAGGCAAAGCUUACCAGAAGGACAUGAUAAUU [Mat - Exclusion NG 3 - Mod of JL - D11] (Eterna round: R96, puzzle: Exclusion NG 3)	198	76	–	–	–	51.6
GCACGGAGUGUAGGAUAUCUGUGCGAUUAGCUCAGAGAAGGACACAUGAGGAUCACCCAUGUGUUCCACGGAAACGUACCGUGC [Eli exng1 - 050] (Eterna round: R96, puzzle: Exclusion NG 1)	11.2	12.5	–	–	–	8.87
UAUAUGUCAGGAUAUUGUUAAUUUAGUUGUUUGUAUUAGUUCGAGAAGGGACAUGAGGAUCACCCAUGUUGUUU [Ex4 #57] (Eterna round: R97, puzzle: Exclusion 4)	28.8	29.6	–	–	–	–
ACUAGAUGAGGAUAUGCAUAUUUUCGUGUUCUUCUAGAUUAACAUGAGGAUCACCCAUGUAGAAGGCGUCUGGA [Exclusion 2 - 18] (puzzle: Exclusion 2)	–	–	–	17.6	–	–
ACAUGUUAUGUAGGAUAUUGGACACAUGAGGAUCACCCAUGUACCCGGAGGCUUUACUAUGAGUUCGAGAAGGGUAUGUACAUG [Ex NG2 #69] (Eterna round: R96, puzzle: Exclusion NG 2)	35.3	47.1	–	–	–	33.7
AGGUGUAGAGGAUAUACUGCAAAGCACAUGAGGAUCACCCAUGUCCCUCUAUGAAAUUAAGUAGAAGGCUACACCA [Omei Ex5 C5] (Eterna round: R97, puzzle: Exclusion 5)	88.6	77.1	–	–	–	–
AACUGGACAGGAUAUGUACUUGAGCACUUGAGGAUCACCCAAGUCAUCAAGUACUCAGGCACAGAAGGGUUUAUGA [jl-ex5.4.61 ViennaUCT mod] (Eterna round: R97, puzzle: Exclusion 5)	142	132	–	–	–	–
UGGAGAUAUAAGGAUAUAUUAGGAGGAGAGGAAAUAGAAGGUGUAACAUGAGGAUCACCCAUGUACCUCAUGUA [Default title] (Eterna round: R97, puzzle: Exclusion 6)	693	985	–	–	–	–
UUGUGCACGCUGCGAUCCUACAUGAGGAUCACCCAUGUGGUCUGGUGGCGUGGGUCACCGGACUUGGCUCGUCUUGA [salish99_S_TOV1_R5_068] (Eterna round: R97, puzzle: Sensor, turn-off variant 1)	118	129	–	–	–	–
AGUAUGUCAGGAUAUCUCGGGUAGCCCACAACGACUACCGAAGAGAAGGGACAUGAGGAUCACCCAUGUACCAU [EX4 B.15] (Eterna round: R97, puzzle: Exclusion 4)	29.9	34.3	–	–	–	–
CGUCAGUGAGGAUAUGGUAACAUUUACAUGAGGAUCACCCAUGUUUCUUGGGACUAAAUACUAGAAGGCACUGACG [JR_Ex5_Sub032] (Eterna round: R97, puzzle: Exclusion 5)	23.1	15	–	–	–	–
ACAUGAGGAUCACCCAUGUGACAAUAAUGGCUGAUACAGAGACAGGAUAUAGGUGAAUAUCUAACCUAGAAGGGUCAUGACUGG [Deportation 71 - Jieux - Exclusion NG 3] (Eterna round: R96, puzzle: Exclusion NG 3)	34.8	54	–	–	–	33
AAAGAAACAGGAUAUGUAGGCUGCGACAUGAGGAUCACCCAUGUGUCGGUAUACAGUCCUAUAGAAGGGUUAUGAC [Tieder] (puzzle: Exclusion 5)	–	–	–	13.1	–	–
AGGAGACAUGAGGAUCACCCAUGUAAGGAUAUGUAGGAGCAGCCGGCUGGUUCGCUCCGCAGAAGGUGCGCGGU [Eternabot (L2) Solution 11] (Eterna round: R97, puzzle: Exclusion 1)	49.3	41.3	–	–	–	–
